Reference: patent US6753315

Biological target: Torpedo nicotinic acetylcholine receptor (nAChR-enriched membranes) (Torpedo (species not stated)) (UniProt P02710)

Substance: Pichia-expressed, purified recombinant α-bungarotoxin (rBgtx) (from UniProt P60615 22-95) (ligand)
- reduction in 125I-Bgtx bound: 45%
